Data published in patent US20180186873A1 (CEPHALON, published 2018).
Several values for one entry are separate records, joined by “and”; a condition that tells them apart may be missing. Identical values can stand only once. Like-named read-outs stand apart in the source and are kept apart here. Values belong to the binder of their own block, whether it stands above or below them.

Assays:
rat IL-5 = target: T1, rat IL-5 (rat, UniProt Q08125 20-132); assay: SPR
T1 sequence (looked up): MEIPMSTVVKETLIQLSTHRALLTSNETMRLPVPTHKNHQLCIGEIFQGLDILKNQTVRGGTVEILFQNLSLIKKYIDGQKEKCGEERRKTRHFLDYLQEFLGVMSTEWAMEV

[1] = target: T2, recombinant human macrophage colony stimulating factor (human, UniProt P09603 33-190, limits assumed); assay: SPR
T2 sequence (looked up): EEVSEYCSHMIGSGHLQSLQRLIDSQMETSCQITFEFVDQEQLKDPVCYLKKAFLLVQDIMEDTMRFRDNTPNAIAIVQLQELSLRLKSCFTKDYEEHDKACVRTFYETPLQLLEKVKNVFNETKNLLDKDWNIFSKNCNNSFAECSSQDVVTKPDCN

[2] = target: recombinant human growth hormone (human, UniProt P01241 27-217); assay: SPR
Chain of recombinant human growth hormone (P01241 27-217 limits assumed): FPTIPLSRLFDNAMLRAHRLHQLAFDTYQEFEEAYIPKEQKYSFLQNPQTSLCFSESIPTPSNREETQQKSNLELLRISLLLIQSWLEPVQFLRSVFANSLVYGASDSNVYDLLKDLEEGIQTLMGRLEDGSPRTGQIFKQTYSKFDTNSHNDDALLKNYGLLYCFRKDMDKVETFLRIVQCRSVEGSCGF

[3] = target: recombinant human granulocyte macrophage colony stimulating factor (human, UniProt P04141 18-144); assay: SPR
Chain of recombinant human granulocyte macrophage colony stimulating factor (P04141 18-144 limits assumed): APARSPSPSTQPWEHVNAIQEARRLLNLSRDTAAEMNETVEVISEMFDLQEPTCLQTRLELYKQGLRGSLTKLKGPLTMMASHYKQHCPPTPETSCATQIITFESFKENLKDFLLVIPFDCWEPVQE

mouse IL-5 = target: T3, mouse IL-5 (mouse, UniProt P04401 21-133); assay: SPR
T3 sequence (looked up): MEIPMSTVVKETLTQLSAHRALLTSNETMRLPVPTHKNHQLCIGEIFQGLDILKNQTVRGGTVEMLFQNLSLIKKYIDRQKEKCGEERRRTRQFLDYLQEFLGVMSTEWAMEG

recombinant human IL-2 = recombinant human IL-2 (human, UniProt P60568 21-153); assay: SPR
Chain of recombinant human IL-2 (P60568 21-153 limits assumed): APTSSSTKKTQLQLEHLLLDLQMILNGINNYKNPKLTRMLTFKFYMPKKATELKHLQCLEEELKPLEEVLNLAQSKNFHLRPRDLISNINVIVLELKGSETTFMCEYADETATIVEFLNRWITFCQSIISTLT

recombinant human IL-3 = target: T4, recombinant human IL-3 (human, UniProt P08700 20-152); assay: SPR
T4 sequence (looked up): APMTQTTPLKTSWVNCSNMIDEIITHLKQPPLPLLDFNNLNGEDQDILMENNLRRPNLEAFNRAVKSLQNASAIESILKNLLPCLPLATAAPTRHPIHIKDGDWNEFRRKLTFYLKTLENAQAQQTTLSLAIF

recombinant human IL-4 = target: T5, recombinant human IL-4 (human, UniProt P05112 25-153); assay: SPR
T5 sequence (looked up): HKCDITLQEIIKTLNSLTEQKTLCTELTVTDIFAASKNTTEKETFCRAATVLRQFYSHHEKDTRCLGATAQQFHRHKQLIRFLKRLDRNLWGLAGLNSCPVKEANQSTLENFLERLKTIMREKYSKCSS

guinea pig IL-5 = target: T6, guinea pig IL-5 (guinea pig, UniProt O08987 20-135); assay: SPR
T6 sequence: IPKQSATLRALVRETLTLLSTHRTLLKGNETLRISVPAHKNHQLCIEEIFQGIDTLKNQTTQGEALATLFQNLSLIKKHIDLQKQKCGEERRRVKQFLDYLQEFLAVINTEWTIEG

recombinant human IL-5 [4] = target: T7, recombinant human IL-5 (human, UniProt P05113 20-134); assay: SPR, Protein A capture
recombinant human IL-5 [5] = target: T7, recombinant human IL-5; assay: SPR, Protein A capture; remark: listed apart in the source
recombinant human IL-5 [6] = target: T7, recombinant human IL-5; assay: SPR, Protein A capture; remark: listed apart in the source
recombinant human IL-5 [7] = target: T7, recombinant human IL-5; assay: SPR, Protein A capture; remark: listed apart in the source
recombinant human IL-5 [8] = target: T7, recombinant human IL-5; assay: SPR, Protein A capture; remark: listed apart in the source
recombinant human IL-5 [9] = target: T7, recombinant human IL-5; assay: SPR, Protein A capture; remark: listed apart in the source
recombinant human IL-5 [10] = target: T7, recombinant human IL-5; assay: SPR, Protein A capture; remark: listed apart in the source
recombinant human IL-5 [11] = target: T7, recombinant human IL-5; assay: SPR, Protein A capture; remark: listed apart in the source
recombinant human IL-5 [12] = target: T7, recombinant human IL-5; assay: SPR, Protein A capture; remark: listed apart in the source
recombinant human IL-5 [13] = target: T7, recombinant human IL-5; assay: SPR, Protein A capture; remark: listed apart in the source
recombinant human IL-5 [14] = target: T8, recombinant human IL-5 (human, UniProt P05113 20-134)
recombinant human IL-5 [15] = target: T8, recombinant human IL-5; assay: cell-based or functional assay
recombinant human IL-5 [16] = target: T9, recombinant human IL-5 (human, UniProt P05113 20-134); assay: SPR
recombinant human IL-5 [17] = target: T9, recombinant human IL-5; assay: SPR; remark: listed apart in the source

B2: 3A5.040 (antibody, human IgG4 S228P, lambda)
heavy: not shown
light: SYVLTQPPSVSVAPGQTARITCGGNNIGSKNVYWYQQKPGQAPVLVVHDDSDRPSGIPERFSGSNSGNTATLTISRVEVGDEADYSCQVWDSSSDHVVFGGGTKLTVLGQPKAAPSVTLFPPSSEELQANKATLVCLISDFYPGAVTVAWKADSSPVKAGVETTTPSKQSNNKYAASSYLSLTPEQWKSHRSYSCQVTHEGSTVEKTVAPTECS
Kd (recombinant human IL-5 [4]): 0.147 nM | koff (recombinant human IL-5 [4]): 0.000213 s⁻¹ | kon (recombinant human IL-5 [4]): 1.45e+06 M⁻¹ s⁻¹ | Kd (recombinant human IL-5 [5]): 0.148 nM and 0.193 nM | koff (recombinant human IL-5 [5]): 0.000214 s⁻¹ and 0.000285 s⁻¹ | kon (recombinant human IL-5 [5]): 1.44e+06 M⁻¹ s⁻¹ and 1.48e+06 M⁻¹ s⁻¹ | Kd (recombinant human IL-5 [6]): 0.18 nM | koff (recombinant human IL-5 [6]): 0.000246 s⁻¹ | kon (recombinant human IL-5 [6]): 1.36e+06 M⁻¹ s⁻¹ | Kd (recombinant human IL-5 [7]): 0.171 nM | koff (recombinant human IL-5 [7]): 0.000252 s⁻¹ | kon (recombinant human IL-5 [7]): 1.47e+06 M⁻¹ s⁻¹ | Kd (recombinant human IL-5 [8]): 0.175 nM | koff (recombinant human IL-5 [8]): 0.000245 s⁻¹ | kon (recombinant human IL-5 [8]): 1.4e+06 M⁻¹ s⁻¹ | % 3A5.040 kd (recombinant human IL-5 [9]): 94% | Kd (recombinant human IL-5 [10]): 0.163 nM | koff (recombinant human IL-5 [10]): 0.000229 s⁻¹ | kon (recombinant human IL-5 [10]): 1.41e+06 M⁻¹ s⁻¹ | Kd (recombinant human IL-5 [11]): 0.167 nM and 0.174 nM | koff (recombinant human IL-5 [11]): 0.000237 s⁻¹ and 0.000252 s⁻¹ | kon (recombinant human IL-5 [11]): 1.42e+06 M⁻¹ s⁻¹ and 1.45e+06 M⁻¹ s⁻¹ | Kd (recombinant human IL-5 [12]): 0.161 nM and 0.168 nM | koff (recombinant human IL-5 [12]): 0.000232 s⁻¹ and 0.000239 s⁻¹ | kon (recombinant human IL-5 [12]): 1.44e+06 M⁻¹ s⁻¹ and 1.43e+06 M⁻¹ s⁻¹ | Kd (recombinant human IL-5 [13]): 0.193 nM and 0.16 nM | koff (recombinant human IL-5 [13]): 0.000261 s⁻¹ and 0.000232 s⁻¹ | kon (recombinant human IL-5 [13]): 1.36e+06 M⁻¹ s⁻¹ and 1.45e+06 M⁻¹ s⁻¹

B4: 3A5.294 (antibody, human IgG4 S228P, lambda, V domains shown)
VH: QVQLQESGPGLVKPSQTLSLTCTVSGGSISNGGYYWSWIRQHPGKGLEWIGYIYYSGSTYYNPSLKSRVTISVDTSKNQFSLKLSSVTAADTAVYYCASLGNWFDYWGQGTLVTVSS
VL: SYVLTQPPSVSVAPGQTARITCGGNNIGSKNVYWYQQKPGQAPVLVVHDDSDRPSGIPERFSGSNSGNTATLTISRVEVGDEADYSCQVWDSSSDHVAFGGGTKLTVLG
% 3A5.040 kd (recombinant human IL-5 [16]): 155% | Kd (recombinant human IL-5 [17]): 0.123 nM

The remaining lines, values ahead:

binding result (rat IL-5): no binding (tested: 10 µg/ml) | binding result [1]: no binding (tested: 1 µg/ml) | binding result [2]: no binding (tested: 1 µg/ml) | binding result [3]: no binding (tested: 1 µg/ml) | binding result (mouse IL-5): no binding (tested: 10 µg/ml) | binding result (recombinant human IL-2): no binding (tested: 1 µg/ml) | binding result (recombinant human IL-3): no binding (tested: 1 µg/ml) | binding result (recombinant human IL-4): no binding (tested: 1 µg/ml) | binding result (guinea pig IL-5): no binding (tested: 10 µg/ml)
B1: antibody 3A5.046 (antibody, human IgG4 S228P, lambda)
heavy: QVQLQESGPGLVKPSQTLSLTCTVSGGSISNGGYYWSWIRQHPGKGLEWIGYIYYSGSTYYNPSLKSRVTISVDTSKNQFSLKLSSVTAADTAVYYCASLGNWFDYWGQGTLVTVSSASTKGPSVFPLAPCSRSTSESTAALGCLVKDYFPEPVTVSWNSGALTSGVHTFPAVLQSSGLYSLSSVVTVPSSSLGTKTYTCNVDHKPSNTKVDKRVESKYGPPCPPCPAPEFLGGPSVFLFPPKPKDTLYITREPEVTCVVVDVSQEDPEVQFNWYVDGVEVHNAKTKPREEQFNSTYRVVSVLTVLHQDWLNGKEYKCKVSNKGLPSSIEKTISKAKGQPREPQVYTLPPSQEEMTKNQVSLTCLVKGFYPSDIAVEWESNGQPENNYKTTPPVLDSDGSFFLYSRLTVDKSRWQEGNVFSCSVMHEALHNHYTQKSLSLSLG
light: SYVLTQPPSVSVAPGQTARITCGGNNIGSKNVYWYQQKPGQAPVLVVHDDSDRPSGIPERFSGSNSGNTATLTISRVEVGDEADYSCQVWDSSSDHVVFGGGTKLTVLGQPKAAPSVTLFPPSSEELQANKATLVCLISDFYPGAVTVAWKADSSPVKAGVETTTPSKQSNNKYAASSYLSLTPEQWKSHRSYSCQVTHEGSTVEKTVAPTECS

Kd (recombinant human IL-5 [14]): 0.036 nM | IC50 (pM) in TF1.6G4 (recombinant human IL-5 [15]): 35.1 pM
B3: antibody 3A5 (antibody, human IgG1, lambda, V domains shown)
VH: QVQLQESGPGLVKPSQTLSLTCTVSGGSISNGGYYWSWIRQHPGKGLEWIGYIYYSGSTYYNPSLKSRVSISVDTSKNQFSLKLNSVTAADTAVYYCASLGNWFDYWGQGTLVTVSS
VL: SSILTQPPSVSVAPGQTARITCGGNNIGSKNVYWYQQKPGQAPVLVVHDDSDRPSGIPERFSGSNSGNTATLTISRVEVGDEADYSCQVWYSSSDHVVFGGGTKLTVLG
